The values that follow come from patent US20150074844A1 (PURDUE RESEARCH FOUNDATION, published 2015).

B1: c-myc-tagged PYL13 (other)
chain: MESSKQKRCRSSVVETIEAPLPLVWSILRSFDKPQAYQRFVKSCTMRSGGGGGKGGEGKGSVRDVTLVSGFPADFSTERLEELDDESHVMVVSIIGGNHRLVNYKSKTKVVASPEDMAKKTVVVESYVVDVPEGTSEEDTIFFVDNIIRYNLTSLAKLTKKMMK
notes: Transiently expressed in Col-0 protoplasts for co-IP; also called c-myc-PYL13; MYC-PYL13; not shown: c-myc tag
B2: PYL13 fused to the GAL4-activating domain (AD) (other, not shown: large carriers)
chain: B1 chain
notes: also called AD-PYL13
B3: PYL12 fused to the GAL4-DNA binding domain (BD) (receptor, not shown: large carriers; small tags and cut ends)
chain: MKTSQEQHVCGSTVVQTINAPLPLVWSILRRFDNPKTFKHFVKTCKLRSGDGGEGSVREVTVVSDLPASFSLERLDELDDESHVMVISIIGGDHRLVNYQSKTTVFVAAEEEKTVVVESYVVDVPEGNTEEETTLFADTIVGCNLRSLAKLSEKMMELT
notes: Yeast two-hybrid construct
B4: PYL11 fused to the GAL4-DNA binding domain (BD) (receptor, not shown: small tags and cut ends)
chain: METSQKYHTCGSTLVQTIDAPLSLVWSILRRFDNPQAYKQFVKTCNLSSGDGGEGSVREVTVVSGLPAEFSRERLDELDDESHVMMISIIGGDHRLVNYRSKTMAFVAADTEEKTVVVESYVVDVPEGNSEEETTSFADTIVGFNLKSLAKLSERVAHLKL
notes: Yeast two-hybrid construct
B5: PYL11-nLUC (receptor)
chain: B4 chain
notes: LUC complementation assay in protoplasts; also called PYLs-nLUC; not shown: N-terminal domain of firefly luciferase

In assay [1] the target is ABI1 without tag (purified recombinant) (Arabidopsis) (UniProt P49597). In words: cell-based or functional assay.
Assay [2] deals with T1, PP2CA-HA (Arabidopsis, UniProt P49598 1-399).
T1 construct: also called hemagglutinin (HA)-tagged PP2CA; not shown: HA tag
T1 sequence (looked up): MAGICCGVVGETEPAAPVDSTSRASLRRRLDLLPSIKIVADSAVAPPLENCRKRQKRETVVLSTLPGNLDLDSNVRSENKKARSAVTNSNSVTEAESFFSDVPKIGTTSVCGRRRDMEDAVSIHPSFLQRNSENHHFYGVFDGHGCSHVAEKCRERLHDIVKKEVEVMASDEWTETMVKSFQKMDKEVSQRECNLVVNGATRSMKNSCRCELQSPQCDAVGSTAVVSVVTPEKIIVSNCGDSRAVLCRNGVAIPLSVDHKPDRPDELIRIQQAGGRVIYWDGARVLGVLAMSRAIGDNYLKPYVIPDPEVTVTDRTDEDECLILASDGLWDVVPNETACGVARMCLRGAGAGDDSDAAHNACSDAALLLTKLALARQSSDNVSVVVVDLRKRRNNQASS
In words: co-IP from protoplasts with anti-HA agarose, western blot; with or without 10 µM ABA. From the text: Coimmunoprecipitation (co-IP) assays using ABI1-HA and PP2CA-HA as baits captured c-myc-PYL13 in an ABA-independent manner (FIG. 3C). The binding of PP2CA with PYL13 again appeared much stronger than that of ABI1 with PYL13. […] Total soluble proteins (input) were extracted from Arabidopsis protoplasts that transiently expressed the indicated constructs. PP2C-interacting proteins were immunoprecipitated with anti-HA mouse antibodies and detected with anti-HA and anti-cMYC rabbit antibodies.
PP2CA-HA, ABI1-HA, and MYC-PYL13 plasmids (20 μg each) were transiently expressed in wild-type (Col-0) protoplasts. After transfection, protoplasts were incubated in WI buffer under light at room temperature for 16.5 h. Protoplasts were treated with 10 μM ABA for 1.5 h before they were harvested, frozen in liquid N2, and stored at −80° C. The frozen protoplasts were resuspended in 1 ml of immunoprecipitation (IP) buffer containing 50 mM Tris-HCl, pH 7.4, 150 mM NaCl, 1 mM EDTA, 0.1% (v/v) Triton X-100, and 1× protease inhibitor cocktail (SIGMA) with or without 10 μM ABA and then centrifuged at 21000 g for 30 min at 4° C. The supernatant was used as input and was incubated for 4 h at 4° C. with 30 μl of monoclonal anti-HA-agarose antibody produced in mouse (SIGMA, A2095). […]

The target of assay [3] is T2, PYL3 fused to the GAL4-DNA binding domain (BD) (Arabidopsis thaliana, UniProt Q9SSM7 1-209).
T2 construct: Yeast two-hybrid construct
T2 sequence: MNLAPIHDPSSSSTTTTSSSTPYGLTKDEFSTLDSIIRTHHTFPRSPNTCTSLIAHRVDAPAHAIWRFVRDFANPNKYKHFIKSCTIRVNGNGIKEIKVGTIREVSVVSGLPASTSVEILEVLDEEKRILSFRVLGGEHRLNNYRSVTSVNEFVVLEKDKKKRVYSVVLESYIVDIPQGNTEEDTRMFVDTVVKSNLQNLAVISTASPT
Nature of the assay: yeast two-hybrid, growth on media lacking His and His/Ade, with and without ABA. How it is done:
(§1) To confirm the interaction between PYL13 and PYL2/PYL9 and to determine whether PYL13 may bind with other PYLs, the interaction of PYL13 with PYLs was examined in yeast two-hybrid assays, as shown in FIG. 5. In this experiment, PYL13 interacted with PYR1, PYL1-4, PYL6, and PYL11-12 in an ABA-independent manner (FIG. 5A). PYL13 fused to the GAL4-activating domain (AD) was used as prey, and PYLs fused to the GAL4-DNA binding domain (BD) were used as baits. Interaction was determined by growth assay on media lacking His and His/Ade in the presence and absence of ABA. Dilutions (10⁻¹, 10⁻², and 10⁻³) of saturated cultures were spotted onto the plates, which were photographed after five days. […] Without wishing to be bound by theory, the lack of interaction between […] and PYL9 may be caused by the cellular differences between yeast and Arabidopsis or because of indirect interactions between the two proteins in Arabidopsis.

The target in assay [4] is T3, PYR1 fused to the GAL4-DNA binding domain (BD) (Arabidopsis thaliana, UniProt O49686 1-191).
T3 construct: Yeast two-hybrid construct
T3 sequence: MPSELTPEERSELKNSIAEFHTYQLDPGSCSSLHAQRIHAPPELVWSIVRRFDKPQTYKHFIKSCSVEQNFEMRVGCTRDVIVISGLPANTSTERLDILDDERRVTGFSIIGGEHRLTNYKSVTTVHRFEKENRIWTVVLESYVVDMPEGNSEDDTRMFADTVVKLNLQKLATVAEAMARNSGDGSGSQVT
The description is as above. How it is done: as §1

The target in assay [5] is T4, PYL6 fused to the GAL4-DNA binding domain (BD) (Arabidopsis thaliana, UniProt Q8S8E3 1-215).
T4 construct: Yeast two-hybrid construct
T4 sequence: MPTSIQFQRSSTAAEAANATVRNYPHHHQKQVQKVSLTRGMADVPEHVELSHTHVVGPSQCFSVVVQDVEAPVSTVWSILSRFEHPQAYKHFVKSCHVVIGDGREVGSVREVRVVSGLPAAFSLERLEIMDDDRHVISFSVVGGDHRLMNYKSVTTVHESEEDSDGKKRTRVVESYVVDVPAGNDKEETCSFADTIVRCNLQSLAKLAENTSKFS
Described as above. As to the method:
as §1

Assay [6] deals with T5, PYL4 fused to the GAL4-DNA binding domain (BD) (Arabidopsis thaliana, UniProt O80920 1-207).
T5 construct: Yeast two-hybrid construct
T5 sequence: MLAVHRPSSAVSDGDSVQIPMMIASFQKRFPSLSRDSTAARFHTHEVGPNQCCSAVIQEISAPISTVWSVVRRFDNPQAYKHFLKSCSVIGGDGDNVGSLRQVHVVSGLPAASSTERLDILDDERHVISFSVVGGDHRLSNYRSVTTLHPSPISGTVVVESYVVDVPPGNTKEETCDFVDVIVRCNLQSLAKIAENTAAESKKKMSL
Described as above. How it is done: as §1

The target in assay [7] is B2. The assay is described as above. How it is done:
as §1

Assay [8] deals with T6, PYL13-cLUC (Arabidopsis thaliana, UniProt Q9SN51 1-164).
T6 construct: LUC complementation assay in protoplasts; also called PYL13 fused to the C-terminal domain of LUC; not shown: C-terminal domain of firefly luciferase
T6 sequence: B1 chain
In words: firefly luciferase complementation in protoplasts (stronger group). How it is done:
To further characterize the interactions between PYL13 and PYLs in vivo, their interactions in protoplasts were examined by the firefly luciferase (LUC) complementation assay. PYL13 was fused to the C-terminal domain of LUC (PYL13-cLUC), and PYLs were fused to the N-terminal domain of LUC (PYLs-nLUC), and co-expressed in protoplasts. After transfection, protoplasts were incubated overnight under light at room temperature, and the LUC activities in living protoplasts were measured. Error bars indicate s.e.m. (n=6). […] PYL13 binds more strongly to PYR1, PYL1-5, PYL7, and PYL10-11 than to PYL6, PYL8-9, or PYL13 (FIG. 5B).

Sequence of ABI1 without tag (purified recombinant) (Arabidopsis) (P49597 whole entry): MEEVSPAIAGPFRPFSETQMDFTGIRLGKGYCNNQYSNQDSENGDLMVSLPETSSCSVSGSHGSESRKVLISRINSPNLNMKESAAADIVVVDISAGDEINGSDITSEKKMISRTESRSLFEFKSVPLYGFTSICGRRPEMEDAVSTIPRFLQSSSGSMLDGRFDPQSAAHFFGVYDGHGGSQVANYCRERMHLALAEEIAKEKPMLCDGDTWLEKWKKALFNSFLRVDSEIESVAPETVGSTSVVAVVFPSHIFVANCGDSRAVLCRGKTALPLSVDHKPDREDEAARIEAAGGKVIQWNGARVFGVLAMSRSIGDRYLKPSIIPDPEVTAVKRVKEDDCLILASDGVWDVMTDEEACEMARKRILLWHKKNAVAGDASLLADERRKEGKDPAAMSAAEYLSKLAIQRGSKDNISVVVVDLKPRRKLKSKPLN

With “PYL2 (purified recombinant protein, phosphatase assay) (from UniProt O80992 1-190) (receptor)”, the ABI1 phosphatase activity (pNPP, A405, % of ABI1 without ABA and PYLs), 10 µM ABA, 0.3 µM each in assay [1] was found to be 50%. For “PYL13-PYL1 protein complex (from UniProt Q9SN51 1-164; Q8VZS8 1-221)”, the ABI1 phosphatase activity (pNPP, A405, % of ABI1 without ABA and PYLs), 10 µM ABA in assay [1] is 88%. The same measure, in the same setting: the result for “PYL13-PYL2 protein complex (from UniProt Q9SN51 1-164; O80992 1-190)” reads 78%. Turning to “PYL1 (purified recombinant protein, phosphatase assay) (from UniProt Q8VZS8 1-221) (receptor)”, in assay [1], the ABI1 phosphatase activity (pNPP, A405, % of ABI1 without ABA and PYLs), 10 µM ABA, 0.3 µM each amounted to 67%. In the case of B1, the binding result in assay [2] is given as “binds”. As for B2, the binding result in assay [3], in assay [4], in assay [5] and in assay [6] was “binds” in each case.

With B3, the binding result in assay [7] was “binds”. Regarding B4, the binding result in assay [7] is reported as “binds”. In the case of B5, in assay [8], the binding result is “binds”.
